“And” between values parts separate entries of the source, which are not always exact repeats. Equal entries are not always repeated.
T1: 재조합 인간 BCMA-his 단백질 (Cat#BCA-H522Y, 아크로 바이오시스템즈) (human, UniProt Q02223 1-54, biotin-labelled in the capture ELISA and the benchmark-blocking ELISA)
T1 construct: Bought protein, MW 7.8 kDa as printed; not shown: his tag
T1 sequence: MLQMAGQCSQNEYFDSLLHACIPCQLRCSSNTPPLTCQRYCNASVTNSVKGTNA

T2: 인간 골수종 세포주 U266 표면의 인간 BCMA (human, UniProt Q02223 1-184)
T2 construct: whole, on cells; also called U266 세포; FACS 세포 결합
T2 sequence (looked up): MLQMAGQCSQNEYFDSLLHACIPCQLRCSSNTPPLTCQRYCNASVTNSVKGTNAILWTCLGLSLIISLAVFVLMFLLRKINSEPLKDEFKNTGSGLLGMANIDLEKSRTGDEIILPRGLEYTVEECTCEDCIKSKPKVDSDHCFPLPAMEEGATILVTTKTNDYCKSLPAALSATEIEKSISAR

B1: 마우스 항-BCMA 단일클론 항체 B1A1 (antibody, V domains shown)
VH: DVQLQESGPGLVKPSQSLSLTCSVTGYSITSAYYWNWIRQFPGNKLEWMGYIRYDGSNNYNPSLKNRISITRDTSKNQFFLKLNSVTAEDTATYYCAPYDYDEVFAYWGQGTLVTVSA
VL: DIVMTQSHKFMSTSVGDRVSITCKASQEVSTAVAWYQQKPGQSPKLLIYWASMRHTGVPDRFTGSGSGTDYTLIITSVQAEDLALYYCQQYYSTPLTFGAGTKLELK
B2: BCMA 벤치마크 (GSK2857916의 BCMA-결합 부분을 함유하는 항체) (antibody, human IgG1, kappa, V domains shown)
VH: QVQLVQSGAEVKKPGSSVKVSCKASGGTFSNYWMHWVRQAPGQGLEWMGATYRGHSDTYYNQKFKGRVTITADKSTSTAYMELSSLRSEDTAVYYCARGAIYDGYDVLDNWGQGTLVTVSS
VL: DIQMTQSPSSLSASVGDRVTITCSASQDISNYLNWYQQKPGKAPKLLIYYTSNLHSGVPSRFSGSGSGTDFTLTISSLQPEDFATYYCQQYRKLPWTFGQGTKLEIKR
notes: also called BM; BCMA-mab1

Legend:
[1] = target: T1, 재조합 인간 BCMA-his 단백질 (Cat#BCA-H522Y, 아크로 …); test: capture ELISA: antibody captured on plate, biotin-labelled human BCMA-his 0.28 nM in solution
[2] = target: T1, 재조합 인간 BCMA-his 단백질 (Cat#BCA-H522Y, 아크로 …); test: competition ELISA: BM coated, antibody titrated and premixed with biotin-labelled human BCMA-his 0.22 nM; competitor BM
[3] = target: T1, 재조합 인간 BCMA-his 단백질 (Cat#BCA-H522Y, 아크로 …); test: competition ELISA: BCMA-his coated, antibody titrated, then biotin-labelled human BAFF-Fc 0.25 nM; competitor BAFF-Fc
[4] = target: T1, 재조합 인간 BCMA-his 단백질 (Cat#BCA-H522Y, 아크로 …); test: SPR (Biacore T200), antibody captured on chip, human BCMA-his in flow, 1:1 Langmuir fit
[5] = target: T2, 인간 골수종 세포주 U266 표면의 인간 BCMA; test: flow cytometry on U266 cells
[6] = target: T3, 사이노몰거스 원숭이 BCMA-Fc 단백질 (아크로 바이오시스템즈, Cat#BCA-C5253) (cynomolgus monkey, UniProt A0A2K5UD97 1-53); test: SPR (Biacore T200), antibody captured on chip, cynomolgus BCMA-Fc in flow, 1:1 Langmuir fit
T3 construct: also called 사이노몰거스 BCMA-Fc; 사이노몰거스 BCMA; not shown: Fc tag

[7] = target: T1, 재조합 인간 BCMA-his 단백질 (Cat#BCA-H522Y, 아크로 …); test: competition ELISA: BM coated, antibody titrated and premixed with biotin-labelled human BCMA-his; competitor BM (self)
[8] = target: T1, 재조합 인간 BCMA-his 단백질 (Cat#BCA-H522Y, 아크로 …); test: competition ELISA: BM coated, antibody titrated and premixed with biotin-labelled human BCMA-his 0.22 nM; competitor BM (self)
[9] = target: T1, 재조합 인간 BCMA-his 단백질 (Cat#BCA-H522Y, 아크로 …); test: competition ELISA: BCMA-his coated, antibody titrated, then biotin-labelled human BAFF-Fc; competitor BAFF-Fc
[10] = target: T1, 재조합 인간 BCMA-his 단백질 (Cat#BCA-H522Y, 아크로 …); test: SPR (Biacore), human BCMA
[11] = target: T1, 재조합 인간 BCMA-his 단백질 (Cat#BCA-H522Y, 아크로 …); test: capture ELISA with biotin-labelled human BCMA-his
[12] = target: T3, 사이노몰거스 원숭이 BCMA-Fc 단백질 (아크로 바이오시스템즈, …); test: SPR (Biacore), cynomolgus BCMA

T3 sequence (A0A2K5UD97 entry or part of it): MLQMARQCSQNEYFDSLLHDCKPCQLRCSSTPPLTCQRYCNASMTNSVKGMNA

| Binder | EC50 [1] | IC50 [2] [nM] | IC50 [3] | Kd [4] [nM] | koff [4] [s⁻¹] | kon [4] [M⁻¹ s⁻¹] | EC50 [5] [nM] | Kd [6] [nM] | koff [6] [s⁻¹] | kon [6] [M⁻¹ s⁻¹] | IC50 [7] | IC50 [8] | IC50 [9] | Kd [10] [nM] | EC50 [11] | Kd [12] [nM] |
| --- | --- | --- | --- | --- | --- | --- | --- | --- | --- | --- | --- | --- | --- | --- | --- | --- |
| B1 | 1.06 nM | 1.91 | 7 nM | 0.636 | 0.00161 | 2.45e+06 | 2.66 | 9.08 | 0.0148 | 1.63e+06 |  |  |  |  |  |  |
| B2 | 1.27 nM and 1.11 nM |  | 9.61 nM and 10.7 nM | 0.742 | 0.000245 | 330000 |  |  |  |  | 2.23 nM and 1.64 nM | 1.93 nM and 2.64 nM | 3.64 nM and 3.59 nM | 0.742 | 0.71 nM and 0.93 nM | 0.599 |

— patent KR20220012314A (dated 2022)
